The values that follow come from publication PMC10532679 (Life, 2023).

The target of experiment [1] is T1, wild-type H6-PKA-Cα, untreated (alpha isoform of the catalytic subunit of cAMP-dependent protein kinase) (murine, UniProt P05132 2-351). The experiment can be described thus: SPR; OpenSPR-XT; CREBtide coupled to a carboxyl sensor; PKA-Cα flowed at 75 µL/min; 1X HBS-P+, 10 mM MgCl2, 0.01% NP-40, 0.5% BSA, 10 µM AMP-PNP, pH 7.4; kinetics analysis; apparent. The note with it: both partners purified.

Experiment [2] addresses T1, wild-type H6-PKA-Cα, untreated (alpha …). Kind of experiment: SPR; OpenSPR-XT; CREBtide coupled (EDC/sulfo-NHS) to a carboxyl sensor, surface blocked with monomeric streptavidin and ethanolamine; PKA-Cα 0.078–10 µM flowed at 20 µL/min; 1X HBS-P+, 10 mM MgCl2, 0.01% NP-40, 0.5% BSA, 10 µM AMP-PNP, pH 7.4; equilibrium analysis; apparent. The note with it: both partners purified. Background: SPR reads the build-up and loss of mass on a sensor chip optically.

B1: CREBtide (peptide)
peptide: KRREILSRRPSYR
notes: Coupled by EDC/sulfo-NHS to the carboxyl sensor in SPR; source: bought: Alfa Aesar
Consider B1, for which the Kd was 2.8 ± 0.75 µM in experiment [1] and 3.3 ± 1 µM in experiment [2].
